From the Human Domainome abundance scans (Beltran et al. 2025)

B1: Endonuclease CUE2, residues 9 to 47; numbered along this chain, P36075 (parent)
chain: HESKLSILMDMFPAISKSKLQVHLLENNNDLDLTIGLLL

Variants of: B1
Test: abundance fitness (aPCA) (normalised: wild type 0, dead -1); higher = more abundant; growth selection in yeast, the domain comes from the species named
Details: Saccharomyces cerevisiae (strain ATCC 204508 / S288c)

Abundance fitness of substitutions, site by site:
K17: A -0.156 | W -0.471 | H -0.085 | T -0.263 | F -0.343 | G -0.255 | Y -0.077 | V -0.196 | I -0.387 | M -0.307 | R -0.074 | C -0.356 | P -0.082 | Q 0.013 | E -0.122 | D -0.286 | S -0.129 | L -0.316
S18: V 0.154 | L -0.103 | T 0.015 | Q 0.082 | F 0.056 | P -0.214 | K -0.03 | D -0.164 | W -0.178 | A -0.063 | R -0.038 | M -0.11
E26: R -0.045 | G -0.123 | A 0.047 | L -0.288 | Q -0.151 | S -0.131 | C -0.331 | K -0.086 | T -0.113 | M -0.176 | F -0.59 | N 0.381 | D -0.139
S16: P 0.025 | H 0.384 | C -0.133 | K -0.114 | G -0.167 | D -0.048 | R -0.15 | W -0.654 | T -0.179 | Q -0.057 | A -0.026 | N -0.171 | L -0.37 | V -0.29 | M -0.395 | E -0.09 | F -0.045
H23: D -0.544 | V -0.146 | Q -0.151 | E -0.163 | L -0.139 | K -0.338 | N -0.026 | M -0.165 | W -0.305 | Y -0.154 | R -0.124 | G -0.342 | P -0.622 | A -0.075
V22: A -0.001 | S -0.055 | T -0.006 | R 0.026 | W -0.147 | G -0.071 | C 0.119 | P -0.464 | D -0.069 | L -0.08 | I 0.039 | K 0.03 | M 0.019 | E -0.05
L24: Y -0.57 | V -0.849 | Q -1.08 | T -0.595 | R -0.855 | G -0.929 | E -0.88 | P -0.982 | I -1 | M -0.31 | W -1.05 | A -0.898
L20: R -0.853 | I 0.161 | S -0.656 | H -0.559 | T -0.702 | Q -0.705 | C -0.058 | V -0.311 | K -0.838 | E -0.748 | W -0.613
L25: V 0.039 | T 0.048 | K -0.126 | W -0.065 | P -0.952 | S -0.017 | Q 0.073 | M 0.043 | R 0.045 | A 0.076 | G 0.001 | E 0.041 | C -0.002 | N -0.333 | D -0.181
Q21: G -0.139 | D -0.119 | T -0.128 | S 0.033 | W -0.423 | M -0.089 | R -0.085 | C -0.061 | F 0.012 | L -0.24 | E -0.021 | P -1.19 | V -0.118 | N 0.807 | H -0.124 | K -0.094 | I 0.155
I15: P -1 | T -0.115 | V -0.115 | S -0.214 | R -0.343 | W -0.023 | Q -0.081
K19: V -0.038 | L -0.143 | E -0.053 | M -0.095 | C -0.248 | D -0.081 | R -0.01 | F -0.123 | S -0.059 | Y -0.364 | P -0.818 | H -0.151 | N 0.063 | Q -0.048 | T -0.015 | W -0.248 | A -0.051
